This series concerns the molecule itself. The series can be described thus: split reporter (BiFC, NanoBiT); BiFC with split Venus in transfected HEK293 cells; percent of fluorescent cells by flow cytometry (Accuri C6 plus) 24 h after transfection. (In general: A flow cytometer gives signals particle by particle.)

Where no end group is shown, it is not given here.

B1: IAPP BiFC fusion: human IAPP, 17-residue linker, N-terminal or C-terminal fragment of Venus (peptide)
chain: KCNTATCATQRLANFLVHSSNNFGAILSSTNVGSNTYRPACKIPNDLKQKVMNH
modifications: cysteine pairing not given here; also: fused to N- or C-terminal Venus fragment, not in chain
notes: human islet amyloid polypeptide (IAPP), the 37-amino acid long peptide cut from proIAPP; 17-amino acid linker between the protein of interest and the Venus fragment; One molecule stands for both constructs, IVN (Venus 1-173) and IVC (Venus 155-239); the label in each row tells which was used; a start methionine is not described; also called IVN; IVC; source: HEK293, transfected (pcDNA3.1 zeo+), …
With B1, the “percent of cells with a fluorescent BiFC signal” value was 19.7%.

B2: aSyn (61–95) BiFC fusion: aSyn residues 61–95, 17-residue linker, N-terminal or C-terminal fragment of Venus (domain or fragment)
chain: not shown
notes: alpha-synuclein (aSyn), residues 61-95, the non-amyloid-B component (NAC) region, 35 amino acids; 17-amino acid linker between the protein of interest and the Venus fragment; One molecule stands for both constructs, aSVN (Venus 1-173) and aSVC (Venus 155-239); the label in each row tells which was used; A start methionine and residues coded by the restriction sites are not described; also called …
Consider B2, for which the “percent of cells with a fluorescent BiFC signal” value amounted to 29.3%.
